In the Human Domainome abundance scans (Beltran et al. 2025):
± gives the uncertainty stated by the source.

Assay: abundance fitness (aPCA) (normalised: wild type 0, dead -1); higher = more abundant; growth selection in yeast, the domain comes from the species named
Conditions: Homo sapiens

Row | Substance | abundance fitness
1 | E3 ubiquitin-protein ligase NEDD4-like S230W, Q96PU5 | -0.496 ± 0.085
2 | E3 ubiquitin-protein ligase NEDD4-like V203D, Q96PU5 | -0.143 ± 0.073
3 | E3 ubiquitin-protein ligase NEDD4-like T219D, Q96PU5 | -0.595 ± 0.085
4 | E3 ubiquitin-protein ligase NEDD4-like S230E, Q96PU5 | -0.034 ± 0.066
5 | E3 ubiquitin-protein ligase NEDD4-like P196N, Q96PU5 | -0.228 ± 0.11
6 | E3 ubiquitin-protein ligase NEDD4-like P194L, Q96PU5 | -0.094 ± 0.054
7 | E3 ubiquitin-protein ligase NEDD4-like P224L, Q96PU5 | -0.93 ± 0.06
8 | E3 ubiquitin-protein ligase NEDD4-like P193G, Q96PU5 | -0.086 ± 0.058
9 | E3 ubiquitin-protein ligase NEDD4-like P196T, Q96PU5 | -0.239 ± 0.083
10 | E3 ubiquitin-protein ligase NEDD4-like K202F, Q96PU5 | -0.49 ± 0.11
11 | E3 ubiquitin-protein ligase NEDD4-like G207E, Q96PU5 | -0.312 ± 0.066
12 | E3 ubiquitin-protein ligase NEDD4-like Q187R, Q96PU5 | -0.298 ± 0.066
13 | E3 ubiquitin-protein ligase NEDD4-like P196S, Q96PU5 | -0.138 ± 0.068
14 | E3 ubiquitin-protein ligase NEDD4-like L226D, Q96PU5 | -0.023 ± 0.088
15 | E3 ubiquitin-protein ligase NEDD4-like Y211G, Q96PU5 | -0.749 ± 0.058
16 | E3 ubiquitin-protein ligase NEDD4-like G207K, Q96PU5 | -0.128 ± 0.063
17 | E3 ubiquitin-protein ligase NEDD4-like L195V, Q96PU5 | 0.143 ± 0.17
18 | E3 ubiquitin-protein ligase NEDD4-like P192R, Q96PU5 | 0.012 ± 0.055
19 | E3 ubiquitin-protein ligase NEDD4-like N205R, Q96PU5 | -0.013 ± 0.054
20 | E3 ubiquitin-protein ligase NEDD4-like P192D, Q96PU5 | -0.173 ± 0.063
21 | E3 ubiquitin-protein ligase NEDD4-like H222I, Q96PU5 | -0.251 ± 0.1
22 | E3 ubiquitin-protein ligase NEDD4-like M227A, Q96PU5 | -0.077 ± 0.064
23 | E3 ubiquitin-protein ligase NEDD4-like P197F, Q96PU5 | -0.006 ± 0.061
24 | E3 ubiquitin-protein ligase NEDD4-like N216P, Q96PU5 | -0.147 ± 0.089

Row | Substance | abundance fitness
25 | E3 ubiquitin-protein ligase NEDD4-like G207Q, Q96PU5 | -0.192 ± 0.069
26 | E3 ubiquitin-protein ligase NEDD4-like T209I, Q96PU5 | -0.036 ± 0.088
27 | E3 ubiquitin-protein ligase NEDD4-like D228R, Q96PU5 | -0.101 ± 0.061
28 | E3 ubiquitin-protein ligase NEDD4-like P192Y, Q96PU5 | -0.31 ± 0.068
29 | E3 ubiquitin-protein ligase NEDD4-like P191Q, Q96PU5 | 0.024 ± 0.074
30 | E3 ubiquitin-protein ligase NEDD4-like P197K, Q96PU5 | 0.267 ± 0.094
31 | E3 ubiquitin-protein ligase NEDD4-like Q187L, Q96PU5 | -0.287 ± 0.071
32 | E3 ubiquitin-protein ligase NEDD4-like E200H, Q96PU5 | -0.721 ± 0.18
33 | E3 ubiquitin-protein ligase NEDD4-like V229A, Q96PU5 | -0.001 ± 0.064
34 | E3 ubiquitin-protein ligase NEDD4-like E200V, Q96PU5 | -0.179 ± 0.084
35 | E3 ubiquitin-protein ligase NEDD4-like T209M, Q96PU5 | -0.093 ± 0.1
36 | E3 ubiquitin-protein ligase NEDD4-like P191T, Q96PU5 | 0.125 ± 0.077
37 | E3 ubiquitin-protein ligase NEDD4-like T218G, Q96PU5 | -0.146 ± 0.061
38 | E3 ubiquitin-protein ligase NEDD4-like Y210N, Q96PU5 | -0.589 ± 0.095
39 | E3 ubiquitin-protein ligase NEDD4-like S225Y, Q96PU5 | -0.395 ± 0.12
40 | E3 ubiquitin-protein ligase NEDD4-like G207F, Q96PU5 | -0.423 ± 0.056
41 | E3 ubiquitin-protein ligase NEDD4-like S231L, Q96PU5 | 0.002 ± 0.088
42 | E3 ubiquitin-protein ligase NEDD4-like N215G, Q96PU5 | -0.036 ± 0.05
43 | E3 ubiquitin-protein ligase NEDD4-like N216E, Q96PU5 | -0.188 ± 0.076
44 | E3 ubiquitin-protein ligase NEDD4-like K202N, Q96PU5 | -0.01 ± 0.11
45 | E3 ubiquitin-protein ligase NEDD4-like S230Q, Q96PU5 | 0.025 ± 0.077
46 | E3 ubiquitin-protein ligase NEDD4-like P194R, Q96PU5 | 0.048 ± 0.065
47 | E3 ubiquitin-protein ligase NEDD4-like H222K, Q96PU5 | 0.251 ± 0.1
48 | E3 ubiquitin-protein ligase NEDD4-like L190K, Q96PU5 | 0.08 ± 0.076
